Reference: US20240409647A1, “BISPECIFIC BINDING PROTEINS AGAINST ALARMINS AND USES THEREOF” (SINOMAB BIOSCIENCE LIMITED, priority 2022, published 2024)
Values joined by “and” are separate entries in the source; they are usually repeats but may differ in a detail not shown here. Equal entries are not always repeated.

Legend:
hIL17RA = target: T1, hIL17RA (Homo sapiens, UniProt Q96F46); assay: ELISA, SM17 specificity against IL-17 receptor subunits (IL17RA); assay type: binding; settings: 0.4 to 0.00064 μg/mL
T1 construct: purchased R&D systems
Method: (§1) A standard ELISA method was used to determine the specificity of SM17 against other human IL17 receptor subunits. Similarly, serially diluted SM17 at different concentrations (final concentrations at 0.4, 0.08, 0.016, 0.0032 and 0.00064 μg/m, respectively) was added to the wells of ELISA plates coated either with human IL-17 receptor subunits A, C, D and E (IL17RA, IL17RC, IL17RD, and IL17RE) (R&D systems).

IL-17RB = target: T2, IL-17RB (Homo sapiens, UniProt Q9NRM6); assay: Bio-Layer Interferometry (Octet), SM17 binding kinetics to human IL17RB; settings: trials 1 and 2
T2 construct: purchased R&D systems
T2 sequence (Q9NRM6 18-502): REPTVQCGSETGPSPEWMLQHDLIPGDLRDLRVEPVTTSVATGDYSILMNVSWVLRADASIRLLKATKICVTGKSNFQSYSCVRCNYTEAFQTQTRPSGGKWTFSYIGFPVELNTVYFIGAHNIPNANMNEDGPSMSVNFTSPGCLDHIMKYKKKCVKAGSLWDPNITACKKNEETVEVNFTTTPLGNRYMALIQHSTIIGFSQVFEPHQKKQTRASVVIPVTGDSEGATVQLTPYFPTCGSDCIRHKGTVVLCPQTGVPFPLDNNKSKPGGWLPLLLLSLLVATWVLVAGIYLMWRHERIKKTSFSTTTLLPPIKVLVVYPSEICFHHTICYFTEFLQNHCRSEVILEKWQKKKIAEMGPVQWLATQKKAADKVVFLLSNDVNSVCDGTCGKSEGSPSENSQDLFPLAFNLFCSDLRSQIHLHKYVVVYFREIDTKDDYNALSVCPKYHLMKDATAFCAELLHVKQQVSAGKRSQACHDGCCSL
Method: Bio-Layer Interferometry analysis (Octet ReD96 system, Sartorius) was employed to determine the binding affinity of SM17 against human and cynomolgus monkey IL17RB protein (R&D systems). Briefly, SM17 (20 μg/mL) was immobilized on biosensors via interactions with anti-human Fab CH1; serially diluted Cyno-IL17RB and Human-IL17RB (at a concentration of 158.7 nM, 79.4 nM and 39.7 nM, respectively) were subsequently added following standard operation protocols of the Octet ReD96 system to plot out the association and dissociation curve. Irrelevant antibody (SM03, anti-human CD22 chimeric IgG1 antibody, SinoMab BioScience Limited) was used as the control reference. Of note, the KD is within picomolar-single digit nanomolar range.

hIL 17RD = target: T3, hIL 17RD (Homo sapiens, UniProt Q8NFM7); assay: ELISA, SM17 specificity against IL-17 receptor subunits (IL17RD); assay type: binding; settings: 0.4 to 0.00064 μg/mL
T3 construct: purchased R&D systems
T3 sequence (Q8NFM7 17-739): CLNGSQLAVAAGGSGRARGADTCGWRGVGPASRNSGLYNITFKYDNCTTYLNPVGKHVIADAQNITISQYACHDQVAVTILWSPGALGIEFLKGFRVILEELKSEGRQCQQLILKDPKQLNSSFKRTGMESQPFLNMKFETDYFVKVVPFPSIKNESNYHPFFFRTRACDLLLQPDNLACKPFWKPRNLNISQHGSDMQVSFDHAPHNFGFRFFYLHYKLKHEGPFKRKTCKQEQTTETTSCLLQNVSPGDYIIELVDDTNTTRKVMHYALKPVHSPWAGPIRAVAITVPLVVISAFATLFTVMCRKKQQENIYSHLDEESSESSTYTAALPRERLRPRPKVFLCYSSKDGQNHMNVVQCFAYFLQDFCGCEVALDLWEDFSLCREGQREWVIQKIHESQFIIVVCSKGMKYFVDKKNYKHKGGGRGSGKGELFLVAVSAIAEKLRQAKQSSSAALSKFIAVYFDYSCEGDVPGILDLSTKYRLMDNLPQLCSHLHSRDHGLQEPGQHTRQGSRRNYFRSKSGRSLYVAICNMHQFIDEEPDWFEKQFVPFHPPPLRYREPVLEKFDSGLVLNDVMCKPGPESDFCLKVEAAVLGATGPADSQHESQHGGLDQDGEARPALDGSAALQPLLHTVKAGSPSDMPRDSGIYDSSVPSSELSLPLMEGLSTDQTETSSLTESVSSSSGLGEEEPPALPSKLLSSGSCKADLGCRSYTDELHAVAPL
Method: as §1

[1] = tested on: IL-2/IL-25-treated human PBMC; assay: IL-5 release from IL-2/IL-25-treated human PBMC; assay type: cell-based; settings: SM17 0.16 ng/mL to 5 mg/mL; 10 unit/mL IL-2, 10 μg/mL IL-25; 72 hours; dose dependent
Method: PBMC (Ixcells, San Diego, CA) co-cultured with IL-2 and IL-25 (PeproTech, Cranbury, NJ) can lead to the release of IL-5, a cytokine known to exacerbate the conditions of asthma. Accordingly, the inhibitory effect of SM17 on IL-5 release from IL-2/IL-25-treated human PBMC was evaluated. Briefly, cryopreserved human PBMC were thawed and cultured in RPMI-1640 medium supplemented with 10% Fetal Bovine Serum (Thermo Fisher Scientific). Serially diluted SM17 at concentrations ranging from 0.16 ng/mL to 5 mg/mL were added to 4×10^5 of human PBMC in the presence of 10 unit/mL of IL-2 and 10 μg/mL of IL-25. Non-specific human IgG4 (SinoBiological) was used as the control antibody. Treated cells were incubated for 72 hours at 37° C., and the level of IL-5 release in the culture supernatant was measured by standard ELISA assay (R&D systems). […] Results are presented as means±SEM. One Way ANOVA, Dunnett's Multiple Comparison Test, *: P<0.05; **: P<0.01.

binding of SM17 to IL17RA (in words) (hIL17RA): No obvious bindings
Ka (IL-17RB): 222000 M⁻¹ s⁻¹ and 183000 M⁻¹ s⁻¹
binding of SM17 to IL17RD (in words) (hIL 17RD): No obvious bindings
Substance: SM17: humanized anti-IL17RB monoclonal antibody, human IgG4 isotype; HC SEQ ID NO: 32, LC SEQ ID NO: 33
release of IL-5 from human PBMC induced with IL-2 and IL-25 (in words) [1]: suppressed the release of IL-5
